Measured values from patent publication US8669088B2, “Enzyme associated with equol synthesis” (Otsuka Pharmaceutical Co., Ltd., priority 2007, dated 2014).

Columns and labels:
[1] = tested on: disrupted cell material of Lactococcus 20-92 strain; assay: Enzyme reaction with disrupted cell material of Lactococcus 20-92 strain as enzyme source (Example B1); type: biochemical; details: 10 μg/mL substrate, 2 mM NADPH, 2 mM NADH, 37° C., 2 hours
Description: The Lactococcus 20-92 strain cells preserved at −80° C. were quickly thawed. The cells were suspended by tapping, and centrifuged at 4° C. (8,000 rpm×5 min) using a centrifuge VC-960 (Taitec). After removing the supernatant, 0.1 M potassium phosphate buffer/1 mM PMSF (phenylmethanesulfonyl fluoride)/2 mM DTT (dithiothreitol)/5 mM sodium hydrosulfite (pH 7.0) were added to obtain a cell suspension. The cell suspension was placed in a 2 ml tube prepared to include zirconia-silica beads (about 0.8 mL, 0.1 mm, 1 lb; Wakenyaku Co., Ltd.), and the tube was charged with 0.1 M potassium phosphate solution/1 mM PMSF/2 mM DTT/5 mM sodium hydrosulfite (pH 7.0) to fill the tube almost completely. For disruption, the tube was closed and kept on ice, where a cycle of 6,500 rpm×20 sec centrifugation and ice-cooling was repeated four times using FastPrep®-FP100A (Thermo Electron Corporation). The resulting disrupted cell material was used as an enzyme source in an enzyme reaction.
A 1 mL enzyme reaction mixture of the composition below, containing 0.1 ml of the disrupted cell material obtained in (1) was prepared, and the mixture was incubated at 37° C. for 2 hours. After incubation, 3 mL of ethyl acetate was added to the resulting enzyme reaction product for extraction. The product was dried to prepare a sample for HPLC analysis. […]

[2] = tested on: Lactococcus 20-92 strain; assay: Equol biosynthetic activity of bacterial cell from tetrahydrodaidzein (Example C1); type: cell-based; details: 10 μg/mL in medium; 37° C., 18 hours, anaerobic; HPLC (FIG. 20)
Description: A Lactococcus 20-92 strain (FERM BP-10036) was inoculated in a tetrahydrodaidzein-containing amplification liquid medium (a modified GAM bouillon medium (NISSUI PHARMACEUTICAL CO., LTD.) to which cis- or trans-tetrahydrodaidzein (organically-synthesized by Otsuka Pharmaceutical Co., Ltd.: see Reference Example B1) was added in an amount of 10 μg/mL), and the culture was incubated at 37° C. for 18 hours under anaerobic conditions (using BBL Gas Pack systems). After incubation, 1 mL of the culture was immediately placed in a glass centrifuge tube with cap, and 3 mL of ethyl acetate was added thereto for extraction. The product was dried to prepare a sample for HPLC analysis. As the standard solution for HPLC analysis, a mixed solution of daidzein (2 μg/mL; Funakoshi Corporation), equol (2 μg/mL; Funakoshi Corporation), dihydrodaidzein (2 μg/mL; Trend Research Chemicals Inc.), cis-tetrahydrodaidzein and trans-tetrahydrodaidzein (2 μg/mL; both chemically-synthesized by Otsuka Pharmaceutical Co., Ltd.) was used.

[3] = tested on: His-tagged recombinant E1 enzyme; assay: Influence of metal ions / reducing agent on dihydrodaidzein synthesis activity of E1 enzyme; type: biochemical, Lactococcus 20-92 strain; details: for influence of metal ions on the conversion activity from daidzein to dihydrodaidzein: 100 μl of 100 mM metal ion solution in 1000 μl, 37° C., 2 hours, HPLC (FIG. 26); for activation of E1 enzyme (dihydrodaidzein synthesizing enzyme activity): general statement in the description
Description: Using the His-tagged recombinant E1 enzyme ([…]) expressed in Escherichia coli, purified by Ni-Sepharose, as an enzyme source, the influence of metal ions on the conversion activity from daidzein to dihydrodaidzein was examined. Various metals (MnCl2.2H2O, FeSO4.7H2O, CaCl2.2H2O, Zn(CH3C00)2.2H2O, CoSO4.7H2O, MgSO4.7H2O, NiSO4.6H2O) were dissolved in distilled water to obtain a concentration of 100 mM. Using the metal ion solution, an enzyme reaction mixture of the composition below was prepared, and was reacted at 37° C. for 2 hours to measure the activity. [table] After incubation, 3 mL of ethyl acetate was added to the obtained enzyme reaction mixture for extraction. After drying, the extract was dissolved by the mobile phase (eluent). The dissolved product was analyzed by HPLC to measure the contents of daidzein and dihydrodaidzein in the enzyme reaction mixture.

[4] = tested on: dihydrodaidzein; assay: Tetrahydrodaidzein biosynthesis activity in centrifuged supernatant of disrupted cell material and NADH or NADPH dependency (Example B2); type: biochemical, Lactococcus 20-92 strain; details: centrifuged supernatant of disrupted cells; 37° C., 2 hours; HPLC (FIG. 11)
Description: The frozen cells were thawed and centrifuged at 4° C. for 15 minutes (5,000×G). The pellet was used in the test below. First, the pellet (wet weight 2.7 g) was suspended in 10 ml of a 0.1 M phosphate-potassium solution containing 1 mM PMSF and 5 mM sodium hydrosulfite. After preheating at 37° C. for 5 minutes, lysozyme was added in an amount of 100 mg per gram of the pellet (wet weight) to cause a reaction at 37° C. for 1.5 hours. Then, an equivalent amount of 0.1 M dipotassium phosphate solution was added to the reaction mixture, and the mixture was vigorously agitated with a vortex mixer after adding zirconia-silica beads (3 ml). The cells were then disrupted with a sonicator (Branson Sonifier Cell Disruptor 200) (3 cycles of a 5-minute sonication and a 2-minute rest). The disrupted cell suspension was centrifuged at about 10,000×G for 15 minutes to obtain a supernatant, which was then used as an enzyme source. An enzyme reaction mixture of the composition below was prepared, and was incubated at 37° C. for 2 hours. After incubation, 5 mL of ethyl acetate was added to the enzyme reaction product for extraction. Then, the product was dried to prepare a sample for HPLC analysis. [table]

[5] = tested on: tetrahydrodaidzein; assay: Enzyme property of E3 enzyme (equol synthesis using tetrahydrodaidzein as a substrate); type: biochemical
Description: Regarding polypeptides (Cb) and (Cc), the activity to synthesize equol using tetrahydrodaidzein as a substrate can be confirmed as follows. First, a polypeptide of interest is added to a substrate solution of the composition below at a concentration of 0.001 mg/mL. The solution is then incubated at 37° C. for 2 hours to check for the presence or absence of equol in the solution. The presence of equol in the solution after incubation is used as an indicator of the polypeptide's activity to synthesize equol using tetrahydrodaidzein as a substrate. Since E3 polypeptide has an enzyme activity to synthesize equol using tetrahydrodaidzein as a substrate, E3 polypeptide is also referred to as E3 enzyme. The optimal temperature of E3 enzyme is in the vicinity of about 23 to 37° C., and the optimal pH is 4.5.

[6] = tested on: dihydrodaidzein; assay: Enzyme property of E2 enzyme (tetrahydrodaidzein synthesis using dihydrodaidzein as a substrate); type: biochemical
Description: Regarding polypeptides (Bb) and (Bc), the activity to synthesize tetrahydrodaidzein using dihydrodaidzein as a substrate can be confirmed as follows. First, a polypeptide of interest is added to a substrate solution of the composition below at a concentration of 0.001 mg/mL. The solution is then incubated at 37° C. for 2 hours to check for the presence or absence of tetrahydrodaidzein in the solution. The presence of tetrahydrodaidzein in the solution after incubation is used as an indicator of the polypeptide's activity to synthesize tetrahydrodaidzein using dihydrodaidzein as a substrate. Since E2 polypeptide has an enzyme activity to synthesize tetrahydrodaidzein using dihydrodaidzein as a substrate, E2 polypeptide is also referred to as E2 enzyme. […] The optimal temperature of E2 enzyme is in the vicinity of 37° C., and the optimal pH is 4.5.

[7] = tested on: daidzein; assay: Enzyme property of E1 enzyme (dihydrodaidzein synthesis using daidzein as a substrate); type: biochemical
Description: Regarding polypeptides (Ab) and (Ac), the activity to synthesize dihydrodaidzein using daidzein as a substrate can be confirmed as follows. First, a polypeptide of interest is added to a substrate solution of the composition below at a concentration of 0.001 mg/mL. The solution is then incubated at 37° C. for 2 hours to check for the presence or absence of dihydrodaidzein in the solution. The presence of dihydrodaidzein in the solution after incubation is used as an indicator of the polypeptide's activity to synthesize dihydrodaidzein using daidzein as a substrate.
Since E1 polypeptide has an enzyme activity to synthesize dihydrodaidzein using daidzein as a substrate, E1 polypeptide is also referred to as E1 enzyme. E1 enzyme is activated by the presence of a reducing agent such as Na2S2O4 and metal ions such as Fe^2+ and Mn^2+. […] The optimal temperature of E1 enzyme is in the vicinity of 30° C., and the optimal pH is 7.0.

## Oc1ccc(C2COc3cc(O)ccc3C2O)cc1 (stereo not drawn) [cis-tetrahydrodaidzein]
[1]; HPLC (FIG. 10)
  production of equol from tetrahydrodaidzein by enzyme reaction: equol was produced
[2]
  equol biosynthesis from tetrahydrodaidzein by bacterial culture: activity to biosynthesize equol

## O=C1c2ccc(O)cc2OCC1c1ccc(O)cc1 (stereo not shown) [dihydrodaidzein]
[1]; HPLC (FIG. 9)
  enzyme reaction product from dihydrodaidzein as a substrate: production of trans-tetrahydrodaidzein

## [Mn+2] [Mn^2+]
[3]
  influence of metal ions on the conversion activity from daidzein to dihydrodaidzein: stimulated the activity
  activation of E1 enzyme (dihydrodaidzein synthesizing enzyme activity): activated

## NC(=O)C1=CN([C@@H]2O[C@H](COP(=O)(O)OP(=O)(O)OC[C@H]3O[C@@H](n4cnc5c(N)ncnc54)[C@H](OP(=O)(O)O)[C@@H]3O)[C@@H](O)[C@H]2O)C=CC1 [NADPH]
[4]
  coenzyme dependency of the conversion of dihydrodaidzein into tetrahydrodaidzein: much more strongly

## [Fe+2] [Fe^2+]
[3]
  influence of metal ions on the conversion activity from daidzein to dihydrodaidzein: stimulated the activity
  activation of E1 enzyme (dihydrodaidzein synthesizing enzyme activity): activated

## O=S([O-])S(=O)[O-].[Na+].[Na+] [Na2S2O4]
[3]
  activation of E1 enzyme (dihydrodaidzein synthesizing enzyme activity): activated

B1: E3 enzyme: polypeptide (SEQ ID NO: 13) having an activity to synthesize equol using tetrahydrodaidzein as a substrate (protein, listed as Lactococcus garvieae)
chain: MAEFDVEYDLVVVGGGASGKSAALIAAREGKRVVVLEKMPETGGLSMYAEGTAAFESSIQNELGTPRLSKYHFPTKQEGIEKFMGYSHQRANYDVVRAFVENSAETIDIYRDLGVVYKACDIAAEDDPNEVWTFHLPEGLGAHCQEVLLDAIQKLDVDIFTSTPAKELIIEDGAVVGVVAESDGEPLRVGGKAVILATGGMGSSPERIFKYSWFAPAAYNMNTLTPLQNVGDGLDLALSAGADPTYITTCPILAAGGRDMTMDSQVGGAGVNPGVWINKTGRRFAAESVAENIGDIGTYYGKQPGGVVWSILSQADIDRLVAEGSEIAIGEFVVYHKPMERLPIELEAHLESGLVKKAGSFEELAALIDVPVDTFVATMADYNEACEKGYDDAFMKKPQYLRPMVEGPFYAIPLATGTMGSAGGIRINGNMQVVDADYNAIPGLYAVGLDATGLYGDSYNMEVPGAANGFAHTSGRIAARHAISTM
[5]
  optimal pH of E3 enzyme: 4.5
  reverse reaction of E3 enzyme: synthesize tetrahydrodaidzein from equol

B2: E2 enzyme: polypeptide (SEQ ID NO: 7) having an activity to synthesize tetrahydrodaidzein using dihydrodaidzein as a substrate (protein, listed as Lactococcus garvieae)
chain: MAQEVKVPKMPGAPVFGKWISPEESVGQRLKGKKILLTGTTKGVGRVTQELLCAHGAFVCGSGRTPGVAASVADELKAKGYQAAGMDVDLSDYDAVKKWVEECAELMGGIDVVINNASHPGMAPFGEMTPEIWNYGIKNELDLVYNVCNCAWPYLQKADGASIIITSSTVALQGSNSPQACHAACKGACLSLARQLAAEGGPFGIRCNSVTPGLVWTEAMSNIPKEMASGLVAAQTTQQAVDPMDIAYAYLFLASDESRQITAANIPVDGGCAGAVTGGMQGEIEV
[6]
  coenzyme requirement of E2 enzyme: requires NADPH or NADH as a coenzyme
  optimal pH of E2 enzyme: 4.5
  optimal temperature of E2 enzyme: ~37 °C
  reverse reaction of E2 enzyme: synthesize dihydrodaidzein from tetrahydrodaidzein

B3: E1 enzyme: polypeptide (SEQ ID NO: 1) having an activity to synthesize dihydrodaidzein using daidzein as a substrate (protein, listed as Lactococcus garvieae)
chain: MKNKFYPKTFERGYIGNLEVENRAIRMPMGTELGNPDGSPSWASLKAYAEAADGGTGIVFMDNAGVTQFHHVGLSLASDNYIGPMSVLAKTIKQHGAIPGLQIVHPGRDAAFVRGDDLISSSRIQWEPWYENGGAVPRELTIEEIHDFVGYFGDCALRAQTAGFEIVDVHAACGVLLSNFLSPRNNTRNDMYGGSLHNRARFLLEVIRDIKKKCPNLPLAIRLSGIDFEPDGITIEETCEVAKMCEAAGADAINITWGSHAEVINAAGLLSKHGANHVEAAKMIKDAVSIPTMLCGGIYSPEIGEKLLEDGVCDFIGIGKPALADPMWAKKAAEGRPEDIRPCIGCGVGCHDRGMLSGGVVQCAVNAALYKFDEPVYPQAEVPKKVIIIGAGPAGCEAAITAKKCGHDVTIYEKRKIGGVLKEATVSDSKEDLGRLITYYETQLKKEGIEVIYEEATADTVVAGGFDVAIVACGATVRNLNIDGQDDPSVVYAMDFLDNDCKSDADRVVVVGGGIVGAETALILAEERGKDVTITTRSPEFFVSGVMGIAYMVRLGMAGVTIKPSTQLVAVKDGKPMFAGPRGLETLDVDQTIISSGFVPTFNQFRAQIEEKCEDVRVIGIGDCKASRMVMDAVHEGYIAGCNL
[7]
  coenzyme requirement of E1 enzyme: requires NADPH or NADH as a coenzyme
  optimal pH of E1 enzyme: 7.0
  optimal temperature of E1 enzyme: ~30 °C
  reverse reaction of E1 enzyme: synthesize daidzein from dihydrodaidzein
